Laboratory results from the supplement of paper PMC5998384.

Experiments:
HeLa Kyoto [1] = test: solubility in G1/S (NP-40 vs SDS abundance) (log2 ratio); higher = more soluble; conditions: cell cycle stage: G1/S
HeLa Kyoto [2] = test: solubility change mitosis vs G1/S (difference of NP-40 vs SDS log2 ratios) (log2 ratio difference); higher = more soluble in mitosis
HeLa Kyoto [3] = test: melting temperature (median over replicates), in situ; higher = more thermally stable
HeLa Kyoto [4] = test: thermal stability score vs G1/S (z-score of summed log2 fold changes over temperatures); higher = more thermally stable than in G1/S
[5] = cell cycle stage: early G1 (4.5 h after nocodazole release)
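For melting temperature (median over replicates), in situ in this document: HeLa Kyoto cells synchronized by double thymidine or nocodazole block, proteins quantified by TMT10plex mass spectrometry, three independent biological replicates.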
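For solubility change mitosis vs G1/S (difference of NP-40 vs SDS log2 ratios) in this document: synchronized HeLa Kyoto cells (double thymidine block for G1/S, nocodazole release for mitosis), protein amounts in NP-40 versus SDS lysates quantified by mass spectrometry, three biological replicates.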
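For solubility in G1/S (NP-40 vs SDS abundance) in this document: HeLa Kyoto cells arrested at G1/S by double thymidine block, proteins quantified by TMT10plex mass spectrometry in mild NP-40 versus SDS extracts, three biological replicates.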
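For thermal stability score vs G1/S (z-score of summed log2 fold changes over temperatures) in this document: synchronized HeLa Kyoto cells, proteins quantified by TMT10plex mass spectrometry, three biological replicates, mitosis taken 0.5 h after nocodazole release, G1/S directly after double thymidine block.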

| Sequence | solubility in G1/S (log2) (HeLa Kyoto [1]) | solubility change mitosis (log2) (HeLa Kyoto [2]) | melting temperature (HeLa Kyoto [3]; cell cycle stage: G1/S) [°C] | melting temperature (HeLa Kyoto [3]; cell cycle stage: mitosis) [°C] | thermal stability score (HeLa Kyoto [4]; [5]) | thermal stability score (HeLa Kyoto [4]; cell cycle stage: mitosis) |
| --- | --- | --- | --- | --- | --- | --- |
| MVVFGYEAGTKPRDSGVVPVGTEEAPKVFKMAASMHGQPSPSLEDAKLRRPMVIEIIEKNFDYLRKEMTQNIYQMATFGTTAGFSGIFSNFLFRRCFKVKHDALKTYASLATLPFLSTVVTDKLFVIDALYSDNISKENCVFRSSLIGIVCGVFYPSSLAFTKNGRLATKYHTVPLPPKGRVLIHWMTLCQTQMKLMAIPLVFQIMFGILNGLYHYAVFEETLEKTIHEE [TMEM126B] | -0.0998 | 0.00498 | 55.9 | 53.5 | 0.469 | -1.3 |
| MVWKRLGALVMFPLQMIYLVVKAAVGLVLPAKLRDLSRENVLITGGGRGIGRQLAREFAERGARKIVLWGRTEKCLKETTEEIRQMGTECHYFICDVGNREEVYQTAKAVREKVGDITILVNNAAVVHGKSLMDSDDDALLKSQHINTLGQFWTTKAFLPRMLELQNGHIVCLNSVLALSAIPGAIDYCTSKASAFAFMESLTLGLLDCPGVSATTVLPFHTSTEMFQGMRVRFPNLFPPLKPETVARRTVEAVQLNQALLLLPWTMHALVILKSILPQAALEEIHKFSGTYTCMNTFKGRT [DHRS3] | -0.137 | -0.135 | 54 | 53.1 | 0.157 | -0.582 |
| MWGACKVKVHDSLATISITLRRYLRLGATMAKSKFEYVRDFEADDTCLAHCWVVVRLDGRNFHRFAEKHNFAKPNDSRALQLMTKCAQTVMEELEDIVIAYGQSDEYSFVFKRKTNWFKRRASKFMTHVASQFASSYVFYWRDYFEDQPLLYPPGFDGRVVVYPSNQTLKDYLSWRQADCHINNLYNTVFWALIQQSGLTPVQAQGRLQGTLAADKNEILFSEFNINYNNELPMYRKGTVLIWQKVDEVMTKEIKLPTEMEGKKMAVTRTRTKPVPLHCDIIGDAFWKEHPEILDEDS [THG1L] | -0.0679 | -0.0698 | 53.3 | 53.5 | 0.242 | -0.354 |
| MWKASAGHAVSIAQDDAGADDWETDPDFVNDVSEKEQRWGAKTVQGSGHQEHINIHKLRENVFQEHQTLKEKELETGPKASHGYGGKFGVEQDRMDKSAVGHEYQSKLSKHCSQVDSVRGFGGKFGVQMDRVDQSAVGFEYQGKTEKHASQKDYSSGFGGKYGVQADRVDKSAVGFDYQGKTEKHESQRDYSKGFGGKYGIDKDKVDKSAVGFEYQGKTEKHESQKDYVKGFGGKFGVQTDRQDKCALGWDHQEKLQLHESQKDYKTGFGGKFGVQSERQDSAAVGFDYKEKLAKHESQQDYSKGFGGKYGVQKDRMDKNASTFEDVTQVSSAYQKTVPVEAVTSKTSNIRANFENLAKEKEQEDRRKAEAERAQRMAKERQEQEEARRKLEEQARAKTQTPPVSPAPQPTEERLPSSPVYEDAASFKAELSYRGPVSGTEPEPVYSMEAADYREASSQQGLAYATEAVYESAEAPGHYPAEDSTYDEYENDLGITAVALYDYQAAGDDEISFDPDDIITNIEMIDDGWWRGVCKGRYGLFPANYVELRQ [CTTN] | -0.21 | -0.0191 | 60.6 | 57.6 | -3.16 | -3.35 |
| MWLDRRGWLRVLGHWRYDLRRPSFTRTWSGDKGPMAETVSTQVGTEGGLRASHQQNGDAGGDAKVELSPGPPKPAGREVEPAPVGGEHPSAAAPGPGKHKKRRGATRERVVPPPKKRRTGVSFGDEHFAETSYYFEGGLRKVRPYYFDFRTYCKGRWVGHSLLHVFSTEFRAQPLAYYEAAVRAGRLQLNEKPVQDLNIVLKDNDFLRNTVHRHEPPVTAEPIRLLAENEDVVVVDKPSSIPVHPCGRFRHNTVIFILGKEHQLKELHPLHRLDRLTSGVLMFAKTAAVSERIHEQVRDRQLEKEYVCRVEGEFPTEEVTCKEPILVVSYKVGVCRVDPRGKPCETVFQRLSYNGQSSVVRCRPLTGRTHQIRVHLQFLGHPILNDPIYNSVAWGPSRGRGGYIPKTNEELLRDLVAEHQAKQSLDVLDLCEGDLSPGLTDSTAPSSELGKDDLEELAAAAQKMEEVAEAAPQELDTIALASEKAVETDVMNQETDPLCAECRLVRQDPLPQDLVMFLHALRYKGPGFEYFSPMPAWAQDDWQKD [RPUSD2] | -0.0296 | 0.0172 | 54.1 | 54.1 | -1.46 | -2.6 |
| MWLPLVLLLAVLLLAVLCKVYLGLFSGSSPNPFSEDVKRPPAPLVTDKEARKKVLKQAFSANQVPEKLDVVVIGSGFGGLAAAAILAKAGKRVLVLEQHTKAGGCCHTFGKNGLEFDTGIHYIGRMEEGSIGRFILDQITEGQLDWAPLSSPFDIMVLEGPNGRKEYPMYSGEKAYIQGLKEKFPQEEAIIDKYIKLVKVVSSGAPHAILLKFLPLPVVQLLDRCGLLTRFSPFLQASTQSLAEVLQQLGASSELQAVLSYIFPTYGVTPNHSAFSMHALLVNHYMKGGFYPRGGSSEIAFHTIPVIQRAGGAVLTKATVQSVLLDSAGKACGVSVKKGHELVNIYCPIVVSNAGLFNTYEHLLPGNARCLPGVKQQLGTVRPGLGMTSVFICLRGTKEDLHLPSTNYYVYYDTDMDQAMERYVSMPREEAAEHIPLLFFAFPSAKDPTWEDRFPGRSTMIMLIPTAYEWFEEWQAELKGKRGSDYETFKNSFVEASMSVVLKLFPQLEGKVESVTAGSPLTNQFYLAAPRGACYGADHDLGRLHPCVMASLRAQSPIPNLYLTGQDIFTCGLVGALQGALLCSSAILKRNLYSDLKNLDSRIRAQKKKN [RETSAT] | 0.0503 | -0.0973 | 52.1 | 52.2 | 2.89 | 3.75 |
| MWLWEDQGGLLGPFSFLLLVLLLVTRSPVNACLLTGSLFVLLRVFSFEPVPSCRALQVLKPRDRISAIAHRGGSHDAPENTLAAIRQAAKNGATGVELDIEFTSDGIPVLMHDNTVDRTTDGTGRLCDLTFEQIRKLNPAANHRLRNDFPDEKIPTLREAVAECLNHNLTIFFDVKGHAHKATEALKKMYMEFPQLYNNSVVCSFLPEVIYKMRQTDRDVITALTHRPWSLSHTGDGKPRYDTFWKHFIFVMMDILLDWSMHNILWYLCGISAFLMQKDFVSPAYLKKWSAKGIQVVGWTVNTFDEKSYYESHLGSSYITDSMVEDCEPHF [GDE1] | 0.138 | -0.1 | 51.5 | 55.9 | 0.685 | -1.42 |
| MWPGNAWRAALFWVPRGRRAQSALAQLRGILEGELEGIRGAGTWKSERVITSRQGPHIRVDGVSGGILNFCANNYLGLSSHPEVIQAGLQALEEFGAGLSSVRFICGTQSIHKNLEAKIARFHQREDAILYPSCYDANAGLFEALLTPEDAVLSDELNHASIIDGIRLCKAHKYRYRHLDMADLEAKLQEAQKHRLRLVATDGAFSMDGDIAPLQEICCLASRYGALVFMDECHATGFLGPTGRGTDELLGVMDQVTIINSTLGKALGGASGGYTTGPGPLVSLLRQRARPYLFSNSLPPAVVGCASKALDLLMGSNTIVQSMAAKTQRFRSKMEAAGFTISGASHPICPVMLGDARLASRMADDMLKRGIFVIGFSYPVVPKGKARIRVQISAVHSEEDIDRCVEAFVEVGRLHGALP [GCAT] | 0.194 | -0.0435 | 53.3 | 53.3 | -0.218 | -1.56 |
| MWPQPRLPPRPAMSEETRQSKLAAAKKKLREYQQRNSPGVPTGAKKKKKIKNGSNPETTTSGGCHSPEDTPKDNAATLQPSDDTVLPGGVPSPGASLTSMAASQNHDADNVPNLMDETKTFSSTESLRQLSQQLNGLVCESATCVNGEGPASSANLKDLESRYQQLAVALDSSYVTNKQLNITIEKLKQQNQEITDQLEEEKKECHQKQGALREQLQVHIQTIGILVSEKAELQTALAHTQHAARQKEGESEDLASRLQYSRRRVGELERALSAVSTQQKKADRYNKELTKERDALRLELYKNTQSNEDLKQEKSELEEKLRVLVTEKAGMQLNLEELQKKLEMTELLLQQFSSRCEAPDANQQLQQAMEERAQLEAHLGQVMESVRQLQMERDKYAENLKGESAMWRQRMQQMSEQVHTLREEKECSMSRVQELETSLAELRNQMAEPPPPEPPAGPSEVEQQLQAEAEHLRKELEGLAGQLQAQVQDNEGLSRLNREQEERLLELERAAELWGEQAEARRQILETMQNDRTTISRALSQNRELKEQLAELQSGFVKLTNENMEITSALQSEQHVKRELGKKLGELQEKLSELKETVELKSQEAQSLQQQRDQYLGHLQQYVAAYQQLTSEKEVLHNQLLLQTQLVDQLQQQEAQGKAVAEMARQELQETQERLEAATQQNQQLRAQLSLMAHPGEGDGLDREEEEDEEEEEEEAVAVPQPMPSIPEDLESREAMVAFFNSAVASAEEEQARLRGQLKEQRVRCRRLAHLLASAQKEPEAAAPAPGTGGDSVCGETHRALQGAMEKLQSRFMELMQEKADLKERVEELEHRCIQLSGETDTIGEYIALYQSQRAVLKERHREKEEYISRLAQDKEEMKVKLLELQELVLRLVGDRNEWHGRFLAAAQNPADEPTSGAPAPQELGAANQQGDLCEVSLAGSVEPAQGEAREGSPRDNPTAQQIMQLLREMQNPRERPGLGSNPCIPFFYRADENDEVKITVI [GOLGA2] | 0.522 | 0.0669 | 48.9 | 48.9 | 1.74 | 3.29 |
| MWRCGGRQGLCVLRRLSGGHAHHRAWRWNSNRACERALQYKLGDKIHGFTVNQVTSVPELFLTAVKLTHDDTGARYLHLAREDTNNLFSVQFRTTPMDSTGVPHILEHTVLCGSQKYPCRDPFFKMLNRSLSTFMNAFTASDYTLYPFSTQNPKDFQNLLSVYLDATFFPCLRELDFWQEGWRLEHENPSDPQTPLVFKGVVFNEMKGAFTDNERIFSQHLQNRLLPDHTYSVVSGGDPLCIPELTWEQLKQFHATHYHPSNARFFTYGNFPLEQHLKQIHEEALSKFQKIEPSTVVPAQTPWDKPREFQITCGPDSFATDPSKQTTISVSFLLPDITDTFEAFTLSLLSSLLTSGPNSPFYKALIESGLGTDFSPDVGYNGYTREAYFSVGLQGIAEKDIETVRSLIDRTIDEVVEKGFEDDRIEALLHKIEIQMKHQSTSFGLMLTSYIASCWNHDGDPVELLKLGNQLAKFRQCLQENPKFLQEKVKQYFKNNQHKLTLSMRPDDKYHEKQAQVEATKLKQKVEALSPGDRQQIYEKGLELRSQQSKPQDASCLPALKVSDIEPTIPVTELDVVLTAGDIPVQYCAQPTNGMVYFRAFSSLNTLPEELRPYVPLFCSVLTKLGCGLLDYREQAQQIELKTGGMSASPHVLPDDSHMDTYEQGVLFSSLCLDRNLPDMMQLWSEIFNNPCFEEEEHFKVLVKMTAQELANGIPDSGHLYASIRAGRTLTPAGDLQETFSGMDQVRLMKRIAEMTDIKPILRKLPRIKKHLLNGDNMRCSVNATPQQMPQTEKAVEDFLRSIGRSKKERRPVRPHTVEKPVPSSSGGDAHVPHGSQVIRKLVMEPTFKPWQMKTHFLMPFPVNYVGECIRTVPYTDPDHASLKILARLMTAKFLHTEIREKGGAYGGGAKLSHNGIFTLYSYRDPNTIETLQSFGKAVDWAKSGKFTQQDIDEAKLSVFSTVDAPVAPSDKGMDHFLYGLSDEMKQAHREQLFAVSHDKLLAVSDRYLGTGKSTHGLAILGPENPKIAKDPSWIIQ [PITRM1] | 0.143 | -0.084 | 51.4 | 50.9 | 0.343 | -0.944 |
